Results as given in publication PMC2528291 (Journal of molecular biology, 2001).
Like-named read-outs stand apart in the source and are kept apart here.

How the values were obtained:
Experiment in all cases: SEC
[1] = molecular target: flagellin (FliC) of S. typhimurium SJW1103 (S. typhimurium (endogenous in SJW1103)) (UniProt P06179)
SEC [2] = molecular target: the molecule itself
SEC [3] = molecular target: the molecule itself; remark: listed apart in the source

Sequence of flagellin (FliC) of S. typhimurium SJW1103 (S. typhimurium (endogenous in SJW1103)) (P06179 whole entry): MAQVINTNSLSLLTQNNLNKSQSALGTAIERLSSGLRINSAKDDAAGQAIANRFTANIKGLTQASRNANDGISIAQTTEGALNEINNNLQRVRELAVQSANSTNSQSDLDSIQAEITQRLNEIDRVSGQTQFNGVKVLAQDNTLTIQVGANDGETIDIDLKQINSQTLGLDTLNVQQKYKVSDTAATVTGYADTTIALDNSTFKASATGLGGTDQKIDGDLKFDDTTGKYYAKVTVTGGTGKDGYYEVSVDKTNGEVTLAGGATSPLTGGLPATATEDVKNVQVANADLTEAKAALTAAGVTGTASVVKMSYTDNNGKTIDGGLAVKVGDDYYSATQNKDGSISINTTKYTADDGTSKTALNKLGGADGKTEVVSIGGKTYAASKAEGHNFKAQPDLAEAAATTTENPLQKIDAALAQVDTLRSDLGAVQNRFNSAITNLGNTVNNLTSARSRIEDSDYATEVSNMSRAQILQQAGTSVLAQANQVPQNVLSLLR

Molecule: His6-FliS (from pET-FliS) (from UniProt P26609 1-135) (natural protein)
- stoichiometry N (FliS per FliC) [1]: 2

B1: FliS (native, cytosolic, of S. typhimurium SJW1103) (natural protein, S. typhimurium (endogenous in SJW1103), UniProt P26609 1-135, looked up)
chain: MYTASGIKAYAQVSVESAVMSASPHQLIEMLFDGANSALVRARLFLEQGDVVAKGEALSKAINIIDNGLKAGLDQEKGGEIATNLSELYDYMIRRLLQANLRNDAQAIEEVEGLLSNIAEAWKQISPKASFQESR
- stoichiometry N (SEC [2]): 2

B2: His6-FliS (from pET-FliS) (natural protein, S. typhimurium, UniProt P26609 1-135, looked up)
chain: B1 chain
modifications: [35S]methionine label (in the affinity blots only)
- stoichiometry N (SEC [3]): 2
